Reference: US20220403022A1 (Merck KGaA, published 2022)
Residue numbers refer to the chain shown, from its start. Values joined by “and” are separate entries in the source; they are usually repeats but may differ in a detail not shown here. Identical values can stand only once.

Experiments:
[1] = biological target: T1, human TIGIT on cells (primary T cells, transfected HEK293 cells, Jurkat reporter cells, NK cells) (human, UniProt Q495A1 22-244); assay: flow cytometry on CD3+ T cells of human PBMCs
T1 construct: also called TIGIT-transfected HEK293 cells
T1 sequence: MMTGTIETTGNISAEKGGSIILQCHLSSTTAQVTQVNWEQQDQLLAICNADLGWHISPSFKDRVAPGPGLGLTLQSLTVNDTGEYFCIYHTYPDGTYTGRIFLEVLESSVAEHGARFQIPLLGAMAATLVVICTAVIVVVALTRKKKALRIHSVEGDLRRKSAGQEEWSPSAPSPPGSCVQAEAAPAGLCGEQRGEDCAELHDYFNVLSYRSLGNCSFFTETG

[2] = biological target: T2, human TIGIT ECD expressed on the CHO-S cell surface (human, UniProt Q495A1 22-141); assay: cell-based or functional assay
T2 sequence: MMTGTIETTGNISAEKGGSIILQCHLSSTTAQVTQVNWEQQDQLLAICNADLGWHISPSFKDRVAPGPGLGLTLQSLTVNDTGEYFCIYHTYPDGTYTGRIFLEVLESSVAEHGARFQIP

[3] = biological target: T3, cynomolgus monkey TIGIT on primary T cells (cynomolgus monkey, UniProt A0A7N9I9V4 89-312); assay: flow cytometry on CD3+ T cells of cyno PBMCs
T3 construct: whole, on cells; also called cyno PBMCs; cynomolgus monkey spleen cells
T3 sequence (A0A7N9I9V4 entry or part of it): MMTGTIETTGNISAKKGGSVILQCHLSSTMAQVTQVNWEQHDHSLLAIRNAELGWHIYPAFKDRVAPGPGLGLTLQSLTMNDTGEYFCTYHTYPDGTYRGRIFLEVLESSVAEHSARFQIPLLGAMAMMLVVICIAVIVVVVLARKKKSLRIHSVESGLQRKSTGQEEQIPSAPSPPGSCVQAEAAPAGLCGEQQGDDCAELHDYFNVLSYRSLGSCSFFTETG

[4] = biological target: T1, human TIGIT on cells (primary T cells, …); assay: flow cytometry, live transfected HEK293 cells
[5] = biological target: T2, human TIGIT ECD expressed on the CHO-S …; assay: flow cytometry blocking assay on CHO-S-human TIGIT cells, competitor biotinylated human CD112-Fc 2 µg/mL
[6] = biological target: T1, human TIGIT on cells (primary T cells, …); assay: target occupancy on CD3+ T cells in human whole blood, unoccupied TIGIT detected with biotinylated 3963H03-12, flow cytometry, 9 donors
[7] = biological target: T1, human TIGIT on cells (primary T cells, …); assay: cell-based or functional assay
[8] = biological target: T1, human TIGIT on cells (primary T cells, …); assay: cell-based or functional assay; remark: listed apart in the source
human TIGIT ECD T55A [9] = biological target: T4, human TIGIT ECD T55A (human, UniProt Q495A1 22-141); assay: SPR, antibody captured on anti-human Fc, TIGIT ECD injected
T4 construct: point mutant expressed in E. coli
T4 chain: T2 sequence with T34A

[10] = biological target: T2, human TIGIT ECD expressed on the CHO-S …; assay: flow cytometry blocking assay on CHO-S-human TIGIT cells, competitor biotinylated human CD155-Fc 2 µg/mL
human TIGIT ECD T55A [11] = biological target: T4, human TIGIT ECD T55A; assay: SPR, antibody captured, mutant TIGIT ECD injected
human TIGIT ECD P114G = biological target: T5, human TIGIT ECD P114G (human, UniProt Q495A1 22-141); assay: SPR, antibody captured, mutant TIGIT ECD injected
T5 construct: point mutant expressed in E. coli
T5 chain: T2 sequence with P93G

human TIGIT ECD Y113A = biological target: T6, human TIGIT ECD Y113A (human, UniProt Q495A1 22-141); assay: SPR, antibody captured, mutant TIGIT ECD injected
T6 construct: point mutant expressed in E. coli
T6 chain: T2 sequence with Y92A

human TIGIT ECD Q53A = biological target: T7, human TIGIT ECD Q53A (human, UniProt Q495A1 22-141); assay: SPR, antibody captured, mutant TIGIT ECD injected
T7 construct: point mutant expressed in E. coli
T7 chain: T2 sequence with Q32A

[12] = biological target: T3, cynomolgus monkey TIGIT on primary T …; assay: target occupancy on CD3+ T cells of cynomolgus monkey spleen cells, unoccupied TIGIT detected with biotinylated 3963H03-12, flow cytometry, 6 donors
[13] = biological target: T2, human TIGIT ECD expressed on the CHO-S …; assay: flow cytometry blocking assay on CHO-S-hTIGIT cells, competitor muCD155-Fc; competitor muCD155-Fc; human IgG 3963H03-12
His-tagged human TIGIT = biological target: T8, His-tagged human TIGIT (human, UniProt Q495A1 22-141); assay: SPR Biacore, antibody captured on anti-human Fc, His-tagged TIGIT injected
T8 construct: soluble analyte in SPR
T8 sequence: T2 sequence

[14] = biological target: T9, His-tagged cynomolgus monkey TIGIT (cynomolgus monkey, UniProt A0A7N9I9V4 89-209); assay: as above
T9 construct: also called Cyno TIGIT; cynomolgus monkey TIGIT (Novoprotein cat. No. CP02)
T9 sequence (A0A7N9I9V4 entry or part of it): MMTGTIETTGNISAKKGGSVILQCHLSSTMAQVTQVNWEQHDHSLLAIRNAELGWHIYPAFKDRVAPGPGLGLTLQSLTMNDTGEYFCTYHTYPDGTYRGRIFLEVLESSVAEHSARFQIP

B1: 3963H03-12 (antibody, human IgG1, kappa, V domains shown)
VH: QVQLVQSGSELKKPGASVKVSCKASGYTFTSYPMNWVRQAPGQGLEWMGWINTNTGNPTYAQGFTGRFVFSLDTSVSTAYLQISSLKAEDTAVYYCARVGGYSVDEYAFDVWGQGTLVTVSS
VL: DIQLTQSPSFLSASVGDRVTITCRASQGISSYLAWYQQKPGKAPKLLIYAASTLQSGVPSRFSGSGSGTEFTLTISSLQPEDFATYYCQQLSSYPTFGGGTKVEIKR
notes: also called anti-TIGIT H03-12; 39631H03-12
EC50 [1]: 0.0852 µg/mL and 0.6 nM | ADCC EC50, nM (Donor 1005-4464) [2]: 0.026 nM | ADCC EC50, nM (Donor 1102-7215) [2]: 0.1 nM | ADCC EC50, nM (Donor 1106-0557) [2]: 0.059 nM | EC50 [3]: 0.132 µg/mL and 0.8 nM | fold median fluorescence over vector-only transfected HEK293 cells [4]: 130 fold | IC50 [5]: 0.411 µg/mL and 2.8 nM | EC50 [6]: 0.24 µg/mL and 1.6 nM | EC50 [7]: 12.5 µg/mL | NK-mediated killing of P815.hCD155 cells (Caspase-3/7 signal) [8]: ≤ 2 fold | ΔΔGmut (human TIGIT ECD T55A [9]): > 3 kcal/mol | IC50 [10]: 0.165 µg/mL and 1.1 nM | binding result (human TIGIT ECD T55A [11]): no binding (tested: 100 nM antigen) | binding result (human TIGIT ECD P114G): no binding (tested: 100 nM antigen) | binding result (human TIGIT ECD Y113A): no binding (tested: 100 nM antigen) | binding result (human TIGIT ECD Q53A): no binding (tested: 100 nM antigen) | EC50 [12]: 0.0927 µg/mL and 0.6 nM | IC50 [13]: 0.499 µg/mL | Kd (His-tagged human TIGIT): 4.05 nM | koff (His-tagged human TIGIT): 0.00067 s⁻¹ | kon (His-tagged human TIGIT): 166000 M⁻¹ s⁻¹ | Kd [14]: 0.829 nM and 0.83 nM | koff [14]: 0.000133 s⁻¹ | kon [14]: 160000 M⁻¹ s⁻¹
